Test results reported in patent US20230346885A1 (published 2023).
Positions count from the first letter of the chain named. Values belong to the binder of their own block, whether it stands above or below them.

What was measured:
Test in all cases: binding, other
CLDN6 peptide on HLA [1] = target: T1, CLDN6 peptide on HLA (human)
T1 peptide: TLIPVCWTA

CT45A1 peptide on HLA = target: T2, CT45A1 peptide on HLA (human)
T2 peptide: SLIAGSAMSKA

CLDN6 peptide on HLA [2] = target: T3, CLDN6 peptide on HLA (human)
T3 peptide: VLTSGIVFV

- binding result (CT45A1 peptide on HLA): recognises
B5: TCR of SEQ ID NOs 341 and 342 (TCR, V domains shown)
Valpha: QKEVEQNSGPLSVPEGAIASLNCTYSDRGSQSFFWYRQYSGKSPELIMFIYSNGDKEDGRFTAQLNKASQYVSLLIRDSQPSDSATYLCAVGTSYDKVIFGPGTSLSVIP
Vbeta: NAGVTQTPKFQVLKTGQSMTLQCAQDMNHEYMSWYRQDPGMGLRLIHYSVGAGITDQGEVPNGYNVSRSTTEDFPLRLLSAAPSQTSVYFCASSYGGGSGYTFGSGTRLTVV

- binding result (CLDN6 peptide on HLA [2]): recognises
B6: TCR of SEQ ID NOs 335 and 336 (TCR, V domains shown)
Valpha: KQEVTQIPAALSVPEGENLVLNCSFTDSAIYNLQWFRQDPGKGLTSLLLIQSSQREQTSGRLNASLDKSSGRSTLYIAASQPGDSATYLCAVRHLSNDYKLSFGAGTTVTVRA
Vbeta: NAGVTQTPKFQVLKTGQSMTLQCAQDMNHEYMSWYRQDPGMGLRLIHYSVGAGITDQGEVPNGYNVSRSTTEDFPLRLLSAAPSQTSVYFCASKRGFDEGSPLHFGNGTRLTVT

- binding result (CLDN6 peptide on HLA [2]): recognises
B7: TCR of SEQ ID NOs 339 and 340 (TCR, V domains shown)
Valpha: KQEVTQIPAALSVPEGENLVLNCSFTDSAIYNLQWFRQDPGKGLTSLLLIQSSQREQTSGRLNASLDKSSGRSTLYIAASQPGDSATYLCAVRPLGGGYQKVTFGTGTKLQVIP
Vbeta: NAGVTQTPKFRVLKTGQSMTLQCAQDMNHNSMYWYRQDPGMGLRLIYYSASEGTTDKGEVPNGYNVSRLNKREFSLRLESAAPSQTSVYFCASSDTGTSVTGELFFGEGSRLTVL

- binding result (CLDN6 peptide on HLA [2]): recognises
B8: TCR of SEQ ID NOs 337 and 338 (TCR, V domains shown)
Valpha: KQEVTQIPAALSVPEGENLVLNCSFTDSAIYNLQWFRQDPGKGLTSLLLIQSSQREQTSGRLNASLDKSSGRSTLYIAASQPGDSATYLCAVRHNQGGKLIFGQGTELSVKP
Vbeta: NAGVTQTPKFRVLKTGQSMTLLCAQDMNHEYMYWYRQDPGMGLRLIHYSVGAGITDQGEVPNGYNVSRLNKREFSLRLESAAPSQTSVYFCASSDRGVYEQYFGPGTRLTVT

- binding result (CT45A1 peptide on HLA): recognises
B9: TCR of SEQ ID NOs 343 and 344 (TCR, V domains shown)
Valpha: QKEVEQNSGPLSVPEGAIASLNCTYSDRGSQSFFWYRQYSGKSPELIMFIYSNGDKEDGRFTAQLNKASQYVSLLIRDSQPSDSATYLCAVGGAGGYQKVTFGTGTKLQVIP
Vbeta: NAGVTQTPKFQVLKTGQSMTLQCAQDMNHEYMSWYRQDPGMGLRLIHYSVGAGITDQGEVPNGYNVSRSTTEDFPLRLLSAAPSQTSVYFCASSYSGNEQYFGPGTRLTVT

The remaining lines, values behind:

B1: TCR of SEQ ID NOs 329 and 330 (TCR, V domains shown)
Valpha: KQEVTQIPAALSVPEGENLVLNCSFTDSAIYNLQWFRQDPGKGLTSLLLIQSSQREQTSGRLNASLDKSSGRSTLYIAASQPGDSATYLCAVQGYGTALIFGKGTTLSVSS
Vbeta: NAGVTQTPKFQVLKTGQSMTLQCAQDMNHEYMSWYRQDPGMGLRLIHYSVGAGITDQGEVPNGYNVSRSTTEDFPLRLLSAAPSQTSVYFCASSQGPYMNTEAFFGQGTRLTVV
- binding result (CLDN6 peptide on HLA [1]): recognises

B2: TCR of SEQ ID NOs 331 and 332 (TCR, V domains shown)
Valpha: KQEVTQIPAALSVPEGENLVLNCSFTDSAIYNLQWFRQDPGKGLTSLLLIQSSQREQTSGRLNASLDKSSGRSTLYIAASQPGDSATYLCAAKAAGNKLTFGGGTRVLVKP
Vbeta: NAGVTQTPKFQVLKTGQSMTLQCAQDMNHNSMYWYRQDPGMGLRLIYYSASEGTTDKGEVPNGYNVSRLNKREFSLRLESAAPSQTSVYFCASSESLGVTGTAFFGQGTRLTVV
- binding result (CLDN6 peptide on HLA [1]): recognises

B3: TCR of SEQ ID NOs 345 and 346 (TCR, V domains shown)
Valpha: KQEVTQIPAALSVPEGENLVLNCSFTDSAIYNLQWFRQDPGKGLTSLLLIQSSQREQTSGRLNASLDKSSGRSTLYIAASQPGDSATYLCAVRGYQKVTFGTGTKLQVIP
Vbeta: B2 Vbeta with S96A, L97S, V99L, T100R, G101S, T102P, A103L, F104H, Q107N, V114T
- binding result (CT45A1 peptide on HLA): recognises

B4: TCR of SEQ ID NOs 333 and 334 (TCR, V domains shown)
Valpha: B8 Valpha with R93K, H94K, N95D, Q96A, G98N, I101T, Q104G, E107R, L108V, S109L
Vbeta: B2 Vbeta with S75P, E79L, E95R, S96R, V99A, T100S, G101S, T102E
- binding result (CLDN6 peptide on HLA [1]): recognises
